Results published in patent US7976843B2, “Method for screening peptides for use in immunotherapy” (Institut National de la Santa et de la Recherche Medicale …, priority 2000, dated 2011).

Target: HLA A2.1 molecule (Homo sapiens, UniProt P04439, D140Y/D185E/D98H/E176V/E277Q/G131W/G231S/I119V/I121R/I166T/I218V/L300P/L318F/N151K/N90K/P208A/P217A/Q86G/Q94H/R138H/R169H/T345S)
Assay: Stability of the peptide/HLA A2.1 complex (DC50) on T2 cells, flow cytometry
Type: binding
Details: […]; arrow in neighbouring cell gives direction
Description: For each incubation time, the cells are then labeled, as indicated above, with the BB7.2 antibody, and analyzed by flow cytometry in order to evaluate the amount of peptide/HLA A2.1 complex present at their surface. […] The DC50 (dissociation complex: DC) is defined as being the time required for the loss of 50% of the HLA A2.1/peptide complexes stabilized at t=0.

Sequence: GILGPVFTL [Flu M58, reference compound]
- DC50 Y1-DC50 WT: =0 hours
